The record followed here is patent publication US20100203559A1.

Test [1] addresses SNAP-25134-197 peptide (human). The test can be described thus: SPR (BIAcore 3000); by Table 9 the KD of 1D3B8 is the lower one. (In general: SPR reads the build-up and loss of mass on a sensor chip optically.)
Test [2] addresses SNAP-25134-197 peptide (human). The test can be described thus: SPR (BIAcore 3000), peptide amine-coupled to CM5, antibody as analyte, 1:1 fit.
Test [3] deals with SNAP-25134-197 peptide (human). Put plainly: SPR (BIAcore 3000), peptide amine-coupled to CM5, antibody as analyte, 1:1 fit; first of two runs.
For test [4], the target named is SNAP-25134-197 peptide (human). Put plainly: SPR (BIAcore 3000), peptide amine-coupled to CM5, antibody as analyte, 1:1 fit; second of two runs, other chip.

B1: α-SNAP-25 monoclonal antibody 1D3B8 (antibody, V domains shown)
VH: QVKLQESGAELVKPGASVKISCKASGYIFTDHALHWVRQKPEQGLEWIGYIFPGNGNIEYNEKFKGKATLTADKSSSTAYMQLNSLTSGDSAMYFCKKMDYWGQGTTVTVSS
VL: DVLMTQTPLSLPVSLGDQASISCRSSQSIVHSNGNTYLEWYLQKPGQSPKLLIYKVSNRFSGVPDRFSGSGSGTDFTLKISRVEAEDLGVYYCFQGSHVPPTFGAGTKLELKR
As a reminder, the Kd is a measure of binding affinity in units of concentration. Low values mean higher affinity, high ones lower affinity. A word on the koff: it is the rate constant with which the complex falls apart. The term kon denotes a measure of how fast the partners come together. A lower kon goes with slower complex formation. B1: the fold difference of the equilibrium disassociation constant against MC-6050 and MC-6053 in test [1] turned out to be 10 fold. In test [2], this molecule gave a Kd of 0.05 nM, a koff of 5.78e-05 s⁻¹ and an on-rate (kon) of 1.06e+06 M⁻¹ s⁻¹.

B2: α-SNAP-25 monoclonal antibody 2C9B10 (antibody, V domains shown)
VH: QVKLQESGAELVKPGASVKISCKASGYTFTDHSIHWVKQKPGQGLEWIGYLFPGNGNFEYNEKFKGKATLTADKSSSTAYMHLNSLTSEDSAVYFCKKMDYWGQGTTVTVSS
VL: DIQMTQSPASLSASVGETVTITCRTTENIYSYFVWSQQRQGKSPQLRVYNAKSLAEGVPSSFNVSVSGTQFSLKINSLQPEDFGTYHCQHHYGTPYTFGGGTRLEIRR
For the molecule B2, in test [2], the Kd was determined as 27.1 nM, the koff is 0.000311 s⁻¹ and the kon was found to be 11500 M⁻¹ s⁻¹.

B3: α-SNAP-25 monoclonal antibody 2E2A6 (antibody, V domains shown)
VH: QVQLQQSDAELVKPGASVKISCRASGYTFTDHSIHWVKQQPGQGLEWIGYIFPGNGNIEYNDKFKGKATLTADKSSGTAYMQLNSLTSEDSAVYFCKRMGYWGQGTSVTVSS
VL: DVLMTQTPLTLSVTIGQPASISCKSSQSLLYTNGKTYLTWLFQRPGQSPKRLIYLVSELDSGVPDRFSGSGSGTDFTLEITRVEAEDLGVYYCLQSAHFPFTFGSGTKLEIKR
For the molecule B3, in test [3], the Kd was determined as 0.09 nM, the koff stood at 0.000153 s⁻¹ and the kon amounted to 1.7e+06 M⁻¹ s⁻¹. In test [4], this molecule came in with a dissociation constant Kd of 0.405 nM, an off-rate constant (koff) of 6.74e-05 s⁻¹ and a kon of 166000 M⁻¹ s⁻¹.

B4: α-SNAP-25 monoclonal antibody 3C1A5 (antibody, V domains shown)
VH: QVKLQESGAELVKPGASVKISCKASGYTFTDHSIHWVKQKPGQGLEWIGYLFPGNGNFEYNEKFKGKATLTADKSSSTVYMYLNSLTSEDSAVYFCKRMGYWGQGTTVTVSS
VL: DVVMTQTPLTLSVTIGQPASISCKSSQSLLNTNGKTYLTWLIQRPGQSPQRLIYLVSKLDSGVPDRFSGSGSGTDFTLKISRVEAEDLGVYYCLQSSHFPFTFGSGTKLEIKR
In test [2], B4 yielded a Kd of 1.33 nM, a koff of 0.000288 s⁻¹ and an on-rate (kon) of 217000 M⁻¹ s⁻¹.
